Test [1] concerns the target PcrV of Pseudomonas aeruginosa strain PA103 (native, on the bacteria) (Pseudomonas aeruginosa). Nature of the test: cell-based or functional assay.
In test [2] the target is GST-PcrV fusion protein (Pseudomonas aeruginosa) [GST: P08515]. Briefly: SPR, Biacore 3000, GST-PcrV amine-coupled to CM4 chip, Fab in solution. (In general: Surface plasmon resonance follows binding to a sensor surface in real time, without labels.)
The target is the same in test [3]. Briefly: dilution ELISA, purified Fab in twofold series in duplicate on plates coated with GST-PcrV, TMB A450 (upper chart). A general note: ELISA stands for enzyme-linked immunosorbent assay.

Turning to Mab 166 whole IgG (antibody), the IC50, inhibition of Pseudomonas-mediated (TTSS exotoxin-dependent) cytotoxicity to P3-X63-Ag8 cells, propidium iodide flow cytometry in test [1] was found to be 93 nM.

B1: Murine Fab M166 (Fab, from another filing, V domains shown)
VH: QVQLKQSGPGLVQPSQSLSITCTVSGFSLTSYGVHWVRQSPGKGLEWLGVIWSGGDTDYNAAFISRLSISKDNSKSQLFFKMNSLRATDTAIYYCARNRGDIYYDFTYAMDYWGQGTSVTVSS
VL: DIQMTQSPASLSASVGETVTITCRASGNIQNYLAWYQQTQGKSPQLLVYSAKTLADGVPSRFSGSGSGTQYSLKINSLQPEDFGSYYCQHFWSTPYTFGGGTKLEIKR
In test [2], B1 had a Kd of 1.1 nM, a koff of 0.00026 s⁻¹ and a kon of 249000 M⁻¹ s⁻¹. The same molecule returned an EC50 (read off the curve) in test [3] of 6 nM.

As a reminder, the Kd is the free concentration of one partner at which half of the binding sites on the other are occupied at equilibrium, for simple one-to-one binding. Read a high Kd as lower affinity. Usually koff stands for a measure of how fast the partners let go of each other. A high value points to a short-lived complex. Broadly, the kon is the rate constant with which the complex forms. As usually defined, the EC50 (read off the curve) is the midpoint of the concentration-response curve. A lower EC50 (read off the curve) goes with an effect from little substance.

The values above are taken from patent US7981843.
